# Reference: the nanobody polyreactivity screen of Harvey et al. (2022)
# Test: yeast display, Sf9 membrane polyspecificity reagent, FACS + sequencing; frameworks hold sequencing errors
# Outline: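 Polyreactivity labels are assigned by the sorting gate from which each nanobody was recovered. The gates were low and high (top ~1%), set on anti-HA fluorescence for expression and streptavidin fluorescence for reagent binding. Before sorting, galactose-induced (36–48 hours) yeast display cells were stained for 1 hour at 4 °C with 10% biotinylated, detergent-solubilized Sf9 membrane reagent.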
row,Sequence,polyreactivity (PSR sort gate)
1,QVQLVESGGGLVQAGGSLRLSCAASGFIFYRNAMGWYRQAPGKERELVAAISKSGGITYYADSVKGRFTISRDNAKNTVYLQMNSLKPEDTAVYYCAKASQNGYDYWGQGTQVTVSS,high polyreactivity
2,QVQLVESGGGLVQAGGSLRLSCAASGFIFYRYAIGWYIQAPGKEREFVASISGSGGRTYYADSVKGRFTISRDNAKNTVYLQMNTLKPEDTAGYYCAADRYSAYLYWDEYWGQGTQVTVSS,high polyreactivity
3,QVQLVESGGGLVQAGGSLRLSCAASGFIFYRYAMGRYRQAPGKERELVAAISWYGGTTYYADSVKGRFTISRDNAKNTVYLQMNSLKPEDTAVYYCAASRLRTEYYWGQGTQVTVSS,high polyreactivity
4,QVQLVESGGGLVQAGGSLRLSCAASGFIFYRYAMGWSRQAPGKERELVAAISWGGGSTTYYADSVKGRFTISRDNAKNTVYLQMNSLKPEDTAVYYCAAYIGKGYGSEYYYWGQGTQVTVSS,low polyreactivity
5,QVQLVESGGGLVQAGGSLRLSCAASGFIFYRYAMGWYRQAPGKERELVAAISRSGGSTYYADSVKGRFTISRDNAKNTVYLQMNSLKPEDTAVYYCAADRGSLAPGNDYWGQGTQVTVSS,high polyreactivity
6,QVQLVESGGGLVQAGGSLRLSCAASGFIFYRYAMGWYRQAPGKERELVAAISSSGGSTYYADSVKGRFTISRDNAKNTVYFQMNSLKPEDTAVYYCNKRPQQYRPGYDYWGQGTQVTVSS,high polyreactivity
7,QVQLVESGGGLVQAGGSLRLSCAASGFIFYRYAMGWYRQAPGKERELVAAITSSGGSTYYADSVKGRFTISRDNAKNTVYLQMNSLKPEDTAVYYCAARYTTSRYGYWGQGTQVTVSS,high polyreactivity
8,QVQLVESGGGLVQAGGSLRLSCAASGFIFYRYAMGWYRQAPGKERELVATIRYSGGSTYYADSVKGRFTISRDNAKNTVYLQMNSLKPEDTAVYYCNARRWYLPRRLYDYWGQGTQVTVSS,high polyreactivity
9,QVQLVESGGGLVQAGGSLRLSCAASGFIFYRYAMGWYRQAPGKERELVATISWSGGRTYYADSVKGRFTISRDNAKNTVYLQMNSLKPEDTAVYYCNAVNTHDYGYWGQGTQVTVSS,low polyreactivity
10,QVQLVESGGGLVQAGGSLRLSCAASGFIFYRYTMGWYRQAPGKERELVAAISGSGGSTYYADSVKGRFTISRDNAKNTVYLQMNSLKPEDTAVYYCAAAHRYWGQGTQVTVSS,high polyreactivity
11,QVQLVESGGGLVQAGGSLRLSCAASGFIFYSNAMGWYIQAPGKEREVVAAISWDAGSTYYADSVKGRFTISRDNAKNTVYLQMISLKPEDSAVYYCATDRIVGRYIYNYWGQGTQVTVSS,high polyreactivity
12,QVQLVESGGGLVQAGGSLRLSCAASGFIFYSNAMGWYRQAPGKARELVAAISWGGGRTYYADSVKGRFTISRDNAKNTVYLQMNSLKPEDTAVYYCAADTIVGNGIKFDYWGQGTQVTVSS,high polyreactivity
13,QVQLVESGGGLVQAGGSLRLSCAASGFIFYSYAMGWYRQAPGKERELVAAIDWDDGTTYYADSVKGRFTISRDNAKNTVYLQMNSLNPEDTAVYYCAAESYYGAYDYWGQGTQVTVSS,high polyreactivity
14,QVQLVESGGGLVQAGGSLRLSCAASGFIFYTYAMGWYRQAPGKERELVAAISRGGRTNYADSVKGRFTISRDNAKNTVYLQMNSLKPEDTAVYYCASSYSHRYDYWGQGTQVTVSS,high polyreactivity
15,QVQLVESGGGLVQAGGSLRLSCAASGFIFYTYAMGWYRQAPGKERELVAAISWNGGSTNYADSVKGRFTISRDNAKNTDYLQMNSLKPEDTAVYYCAARSVSTLRYTSRKLRYDYWGQGTQVTVSS,high polyreactivity
16,QVQLVESGGGLVQAGGSLRLSCAASGFIFYTYAMGWYRQAPGKERELVAAISWRGGRTYYADSVKGRFTISRDNAKNTVYLQMNSLKPEDTAVYYCNAVTSSGEYDYWGQGTQVTVSS,high polyreactivity
17,QVQLVESGGGLVQAGGSLRLSCAASGFIFYWYAMGWYRQAHGKERELVARITQSVGRTYYADSVKGRFTISRDNAKNTVYLQMNSLKPEDTAVHYCATDYGSYWSGAAYERYDYWGQGTQVTVSS,low polyreactivity
18,QVQLVESGGGLVQAGGSLRLSCAASGFIFYYNAMGWYRHAPGKERELDAGISRSAGSTYYADSVKGRFTISRDNAKNSVYLHMNSLTPEDTAVYYCAARYLSYITGTSYYWGQVTQVTVSS,low polyreactivity
19,QVQLVESGGGLVQAGGSLRLSCAASGFIFYYNGMGRYRQAPGKERELVAAISGGVGSTYYADSVKGRFTISRDNAKNTVYLQMNSLKPEDTAVYYCNAKLYKPPFDYWGQGTQVTLSS,low polyreactivity
20,QVQLVESGGGLVQAGGSLRLSCAASGFIFYYYAMGWYRPAPGKERELVAAISGESTSTYYADSVKGRFTISRDNAKNTVYLQMNSLKPEDTALYYCAADLYHWDGYEYWGQGTQVTVST,high polyreactivity
21,QVQLVESGGGLVQAGGSLRLSCAASGFIFYYYAMGWYRPAPGKERELVAAISGSGGSTYYADSVKGRFTISRDNAKNTGYLQMNSMNPEDTAVYYCAAVQAAGSHAYDYWGQGTQVTVSS,high polyreactivity

row,Sequence,polyreactivity (PSR sort gate)
1,QVQLVESGGGLVQAGGSLRLSCAASGFIFYYYAMGWYRQAPGKERELVAAITQGGGSTYYADSVKGRFTISRDNAKNTVFLQMNSLKPEDTAVYYCAAVKRVYAHSRAFSSDFYYWGQGTQVTVSS,high polyreactivity
2,QVQLVESGGGLVQAGGSLRLSCAASGFIGWYAMGWYRQAPGNEREFVAAISASGGSTYYADSVKGRFTISRDNAKNTVYLQMNSLKPEETAVYYCAAYYRAYNPRRFYYWGQGTQVTVSS,high polyreactivity
3,QVQLVESGGGLVQAGGSLRLSCAASGFIIDDNTMGWYRQAPGKEMELVAAISYSAGSTYYADSVKGRFTISRDNAKNTVYLQMNSVKPEDTAVYYCAAQHYWVTSYLSSSDYWGQGTQVTVSS,low polyreactivity
4,QVQLVESGGGLVQAGGSLRLSCAASGFIIDGYAMGWYRQAPVKERELVAVISQRGSNTYYADSVKGRFTISRDNAKNTVYLQMNSLKPEDTAVYYCAARYKQGDSTGGRMNYWGQGTQVTVSS,high polyreactivity
5,QVQLVESGGGLVQAGGSLRLSCAASGFIIDSNAMGWYRQAPGKERELVAAIDYSGGSTYYADSVKGRFTISRDNAKNTVYLQMNSLKPEDTAFYYCAAEYHGYRYNYYPYSHYFIYEYWGQGTQVTVSS,high polyreactivity
6,QVQLVESGGGLVQAGGSLRLSCAASGFIIGSYAMGWYRQAPGTERELVAAITRSGGNTYYADSVKGRFTISRDNAKNTVYLQMNSLKPEDTAVYYCAAYSGYWYDYWGQGTQVTVSS,high polyreactivity
7,QVQLVESGGGLVQAGGSLRLSCAASGFIIGYYAMGWYRQAPGKERDLVAAISSTGGSTYYADSVKGRFTISRDNAMNTVYLQMNSLKPEDTAVYYCAKRFAYYRYHPGYDYWGQVTQVTVSS,high polyreactivity
8,QVQLVESGGGLVQAGGSLRLSCAASGFIIKSYAMGWYRQAPGKERELVAAISYTGSITYYADSVKGRFTISRDNAKNTVYLQMNSLKPEDTSVYYCAVGRYADQNDYWGQGTQVTVSS,high polyreactivity
9,QVQLVESGGGLVQAGGSLRLSCAASGFIIKWYAMGWYRQAPGKERELLAAISIDGGSTYYADSVKGRFTISRDNAKNTVYLQMNSLLPEDTAVYYCNAGYNGTQYLTRDYGLGMDYWGLGTQVTVSS,low polyreactivity
10,QVQLVESGGGLVQAGGSLRLSCAASGFIIQGNAMGWYRQAPGKERELVAAISSCVSTYYADSVKGRFTISRDNAKNTVYLQMNSLKPEDTAVYYCNAGFPLSLWLGDYWGQGTHVTVSS,low polyreactivity
11,QVQLVESGGGLVQAGGSLRLSCAASGFIISHYAMGWYRQAPGKERELVAAISSSGGSTYYADSVKGRFTISRDNAKNTVYLQMNSLKPEDTAVYYCAAAAGAYDYDYWGQGTQVNVSS,high polyreactivity
12,QVQLVESGGGLVQAGGSLRLSCAASGFIISPYAMGWYRQAPGKERELVAAISWSGVSTYYADSVKGRFTISRDNAKNTVYLQMNSLKPEDTAVYYCATYRPVYYWGQGTQVTVSS,high polyreactivity
13,QVQLVESGGGLVQAGGSLRLSCAASGFIISPYARGWYRQAPGKETELVAAISWSGVSTYYADSVKGRFTMSRDNAKNTVYLQMNSLNPEDTAVYYCAADPYCVKYRYGDDYWGQGTQVTVSS,high polyreactivity
14,QVQLVESGGGLVQAGGSLRLSCAASGFIISVYAMGWYRPAPGKERELVARIDSGGSTYYADSVKGRFTISRDNAKNTVYLQMNSLKPEDTAVYYGATDEGTVGGQQLRPLMDYWGQGTQVTVSS,low polyreactivity
15,QVQLVESGGGLVQAGGSLRLSCAASGFIITSYAMGWYRQAPGKERELVAAINGGGSTYYADSVKGRFTISRDNAKNTVYLQMNSLKPEDTAVYYCAAKFRAGRSSYYWGQGTQVTVSS,high polyreactivity
16,QVQLVESGGGLVQAGGSLRLSCAASGFIITTYAMGWYRQAPGTEREVVAGISSSGGSTRYADSVKGRFTISRDNAKNTVYLQMNSLKPEDTAVYYCNVLRYRGYDYWGQGTQVTVSS,high polyreactivity
17,QVQLVESGGGLVQAGGSLRLSCAASGFIIVRNALGWYRQAPGKERELVAAMRWSGGSTYYADSEKGRFTISRDNSKNTDYLQMNSLKPEDTAVYYCAARLWLKVQYLRFFVYDYWGQGTQVTVSS,low polyreactivity
18,QVQLVESGGGLVQAGGSLRLSCAASGFIIYGYAMGWYRQAPGKESELVAAISRRSASTYYADSVKGRFTISRDNAKNTVYLQMNSLNPEDTAVYYCNAASARGVIGYKPLWYARGYWGQGTQVTVSS,high polyreactivity
19,QVQLVESGGGLVQAGGSLRLSCAASGFIIYRNPMGWYRQAPGKERELVAGISSGGSTNYADSVKGRFTISRDNEKNTVYLQMNSLKPEDTAVYYCASRVYALWFGRYDYWGQGTQVIVSS,high polyreactivity
20,QVQLVESGGGLVQAGGSLRLSCAASGFIIYSYAMGWYRQAPGKERELVAVISSRGGTTYYADSVKGRFTISRDNAKNTVYLQMNSLKPEDTAVYSCNVDRLGQRSDYWGQGTQVTVSS,low polyreactivity
